Among the data in article PMC5912696 are fold above background values, retold here.

The experiment deals with Q394X truncation of the ER-tethered Ste6 NBD2 chimera (yeast). Nature of the experiment: co-IP.

“Hsp104 (from UniProt P31539 1-908) (natural protein)” showed a fold above background of 2 fold.
